Legend:
[1] = biological target: V12.Pf3.1 recombinant HBc chimer particle (hepatitis B virus, subtype ayw; Plasmodium falciparum); test: particle ELISA, end point titer dilution of MoAb 2A10; reference V12.Pf3
[2] = biological target: V12.Pf3.6 recombinant HBc chimer particle (hepatitis B virus, subtype ayw; Plasmodium falciparum); test: particle ELISA, end point titer dilution of MoAb 2A10
[3] = biological target: V12.Pf1 recombinant HBc chimer particle (hepatitis B virus, subtype ayw; Plasmodium falciparum); test: as above
[4] = biological target: V12.Pf3.2 recombinant HBc chimer particle (hepatitis B virus, subtype ayw; Plasmodium falciparum); test: as above
[5] = biological target: V12.Pf3.4 recombinant HBc chimer particle (hepatitis B virus, subtype ayw; Plasmodium falciparum); test: as above
[6] = biological target: V12.Pf3.12 recombinant HBc chimer particle (hepatitis B virus, subtype ayw; Plasmodium falciparum); test: as above
[7] = biological target: V12.Pf3.5 recombinant HBc chimer particle (hepatitis B virus, subtype ayw; Plasmodium falciparum); test: as above
[8] = biological target: V12.Pf3 recombinant HBc chimer particle (hepatitis B virus, subtype ayw; Plasmodium falciparum); test: as above
[9] = biological target: V12.Pf3.8 recombinant HBc chimer particle (hepatitis B virus, subtype ayw; Plasmodium falciparum); test: as above
[10] = biological target: V12.Pf3.11 recombinant HBc chimer particle (hepatitis B virus, subtype ayw; Plasmodium falciparum); test: as above
[11] = biological target: V12.Pf3.3 recombinant HBc chimer particle (hepatitis B virus, subtype ayw; Plasmodium falciparum); test: as above
[12] = biological target: V12.Pf3.9 recombinant HBc chimer particle (hepatitis B virus, subtype ayw; Plasmodium falciparum); test: as above
[13] = biological target: V12.Pf3.10 recombinant HBc chimer particle (hepatitis B virus, subtype ayw; Plasmodium falciparum); test: as above
[14] = biological target: V12.Pf3.1 recombinant HBc chimer particle (hepatitis B virus, subtype ayw; Plasmodium falciparum); test: as above

MoAb 2A10 (antibody)
fold less antigenic than V12.Pf3 [1]: 5 fold | Antigenicity (end point titer, normalized so that the lowest titer is 1) [2]: 5 fold | Antigenicity (end point titer, normalized so that the lowest titer is 1) [3]: 33 fold | Antigenicity (end point titer, normalized so that the lowest titer is 1) [4]: 33 fold | Antigenicity (end point titer, normalized so that the lowest titer is 1) [5]: 5 fold | Antigenicity (end point titer, normalized so that the lowest titer is 1) [6]: 5 fold | Antigenicity (end point titer, normalized so that the lowest titer is 1) [7]: 5 fold | Antigenicity (end point titer, normalized so that the lowest titer is 1) [8]: 165 fold | Antigenicity (end point titer, normalized so that the lowest titer is 1) [9]: 5 fold | Antigenicity (end point titer, normalized so that the lowest titer is 1) [10]: 5 fold | Antigenicity (end point titer, normalized so that the lowest titer is 1) [11]: 5 fold | Antigenicity (end point titer, normalized so that the lowest titer is 1) [12]: 5 fold | Antigenicity (end point titer, normalized so that the lowest titer is 1) [13]: 1 fold | Antigenicity (end point titer, normalized so that the lowest titer is 1) [14]: 33 fold
